Results as given in the supplement of paper PMC9732359.
± gives the uncertainty stated by the source.

Experiment: protein stability index of a GFP-peptide fusion (yeast GPS) (PSI 1-4); higher = more stable; sorted into four equal gates, so the index is relative within each strain
Summary of the method: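 Tiled 17-residue peptides from yeast proteins were fused downstream of GFP on a plasmid that also expresses Cherry, and the pooled library was carried in yeast. Mid-log cultures grown in leucine-free medium were sorted into four equal gates by GFP/Cherry fluorescence ratio. Plasmids from each gate were PCR-amplified and Illumina-sequenced, and reads were assigned to strains by barcodes. Each peptide's protein stability index is the sum, over gates, of the gate's read frequency multiplied by its gate number.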

| Sequence | protein stability index (doa10∆) | protein stability index (pdr5∆) | protein stability index (san1∆) | protein stability index (ubr1∆) |
| --- | --- | --- | --- | --- |
| AEQSFDQQSPWLLRLEL [RPO21] | 3 ± 0.052 | 3.14 ± 0.051 | 3.1 ± 0.039 | 3.11 ± 0.04 |
| AETTFLQDVIALSIADD [RPC53] | 2.24 ± 0.07 | 1.8 ± 0.065 | 1.97 ± 0.12 | 2.18 ± 0.07 |
| AFALAKEKAPTIIFIDE [RPT5] | 2.79 ± 0.12 | 2.78 ± 0.12 | 2.83 ± 0.14 | 2.88 ± 0.086 |
| AFFTYDAGVTFNKEQLN [ECM29] | 2.07 ± 0.052 | 3.08 ± 0.1 | 2.63 ± 0.083 | 2.58 ± 0.061 |
| AFGEFSLEGCVEMAWIM [FAS2] | 2.46 ± 0.1 | 2.63 ± 0.12 | 2.48 ± 0.079 | 2.37 ± 0.088 |
| AFGGSATTGGGLFGNKP [YGL172W/NUP49] | 3.26 ± 0.091 | 2.7 ± 0.26 |  | 3.16 ± 0.12 |
| AFHLHCINKWIKTRDAC [HRT1] | 1.86 ± 0.089 | 2 ± 0.076 | 1.66 ± 0.14 | 2.19 ± 0.065 |
| AFITQLESSITDAGVLA [YJL039C/NUP192] | 1.54 ± 0.06 | 1.6 ± 0.057 | 1.16 ± 0.14 | 1.08 ± 0.096 |
| AFKHKRALVEHIIQAKA [RPL19A] | 3.11 ± 0.13 | 3.37 ± 0.1 | 3.19 ± 0.12 | 3.19 ± 0.072 |
| AFNFSFNTSRNVEPTEN [YAR002W/NUP60] | 3.3 ± 0.052 | 3.3 ± 0.079 | 3.41 ± 0.064 | 3.04 ± 0.051 |
| AGAAGAAAGGDAAEEEK [RPP2B] |  |  |  | 1.27 ± 0.27 |
| AGLDKGISINNMMEHWD [RPO31] | 3.04 ± 0.13 | 3.09 ± 0.091 | 3.02 ± 0.086 | 3.14 ± 0.05 |
| AGQIPTGWNAKTYGISD [FAS2] | 1.68 ± 0.14 | 1.36 ± 0.12 | 1.66 ± 0.26 | 1.23 ± 0.09 |
| AGRGFTLAEVKAAGLTA [RPL13A] | 2.27 ± 0.073 | 2.5 ± 0.071 | 1.56 ± 0.093 | 1.77 ± 0.044 |
| AGSTGFSFGQNNNNTNT [YGR119C/NUP57] | 2.52 ± 0.068 | 2.5 ± 0.072 | 2.32 ± 0.092 | 2.32 ± 0.064 |
| AHLYMLEPSGSYWGYKG [PRE10] | 1.66 ± 0.069 | 1.7 ± 0.13 | 2.06 ± 0.21 | 1.84 ± 0.082 |
| AHTGATPIAGRFTPGSF [RPS0A] | 3.15 ± 0.17 | 2.91 ± 0.08 | 2.52 ± 0.17 | 2.81 ± 0.12 |
| AIAGNSTTNSDVSLLLQ [RGR1] | 3.09 ± 0.13 | 2.19 ± 0.082 | 3.03 ± 0.056 | 3.13 ± 0.071 |
| AIGTKRYDSNSGGEREI [RPT2] | 3.28 ± 0.22 | 3.54 ± 0.11 | 3.39 ± 0.12 | 3.5 ± 0.13 |
| AIGYEPLSLTHRDKNKM [DIS3] | 2.83 ± 0.058 | 2.9 ± 0.061 | 2.88 ± 0.063 | 2.93 ± 0.042 |
| AIHIFESYYNWKYNNFL [YML103C/NUP188] | 2.04 ± 0.13 | 1.6 ± 0.1 | 1.94 ± 0.24 | 2.62 ± 0.17 |
| AILKLLENMPHPWEQAK [PRP8] | 2.76 ± 0.12 | 2.05 ± 0.088 | 1.93 ± 0.13 | 2.16 ± 0.057 |
| AILQEKILSILNRSHFA [ECM29] | 1.87 ± 0.05 | 2.15 ± 0.052 | 2.27 ± 0.054 | 2.35 ± 0.051 |
| AILYTKPGHVLQEEWDQ [YGR119C/NUP57] |  | 3.25 ± 0.14 |  | 3.81 ± 0.23 |
| AIQFVKENELLFGEKSI [YCS4] | 2.19 ± 0.098 | 2.09 ± 0.064 | 2.58 ± 0.16 | 1.92 ± 0.069 |
| AISKKDLEEVKRFQVLY [SEC65] | 2.6 ± 0.16 | 3.02 ± 0.1 | 2.8 ± 0.29 | 2.3 ± 0.13 |
